This experiment concerns the target autologous blood coagulum (ABC) prepared from rat full blood. Nature of the experiment: rhBMP-6 mixed with rat full blood, coagulated for 60 min, serum removed; method of quantification not stated.

Where only a bound is given, the exact number is not on record here.

In turn, “recombinant human BMP6 (rhBMP6) (from UniProt P22004 375-513) (ligand)” displayed a percent bound greater than 95%.

Source of the values: patent US20210213165A1.
